Test results from patent US20160223554A1, “METHODS FOR DIAGNOSIS, PROGNOSIS AND METHODS OF TREATMENT” (priority 2011, published 2016).

Experiments:
Type in all cases: cell-based, human
AML blasts [1] = experiment: SCNP phospho-flow signaling nodes in AML PBMC (Example 2, Study No. 1); conditions: for Mean Value of CRs: CR patients; for Mean Value of CRs / Mean Value of NRs: Study No. 1; for Mean Value of NRs: NR patients
Method: Frozen cells are thawed in a 37° C. water bath and gently resuspended in the vial and transferred to the 15 mL conical tube. The 15 mL tube is centrifuged at 930 RPM (200×g) for 8 minutes at room temperature. The supernatant is aspirated and the pellet is gently resuspended in 1 mL media A. The cell suspension is filtered through a 70 um cell strainer into a new 15 mL tube. The cell strainer is rinsed with 1 mL media A and another 12 ml of media A into the 15 mL tube. The cells are mixed into an even suspension. A 20 μL aliquot is immediately removed into a 96-well plate containing 180 μL PBS+4% FBS+CD45 Alexa 700+PI to determine cell count and viability post spin. After the determination, the 15 mL tubes are centrifuged at 930 RPM (200×g) for 8 minutes at room temperature. The supernatant is aspirated and the cell pellet is gently resuspended in 4 mL PBS+4 μL Amine Aqua and incubated for 15 min in a 37° C. incubator. 10 mL RPMI+1% FBS is added to the cell suspension and the tube is inverted to mix the cells. The 15 mL tubes are centrifuged at 930 RPM (200×g) for 8 minutes at room temperature. The cells are resuspended in Media A at the desired cell concentration (1.25×10^6/mL). For samples with low numbers of cells (<18.5×10^6), the cells are resuspended in up to 15 mL media. For samples with high numbers of cells (>18.5×10^6), the volume is raised to 10 mL with media A and the desired volume is transferred to a new 15 mL tube, and the cell concentration is adjusted to 1.25×10^6 cells/ml. 1.6 mL of the above cell suspension (concentration at 1.25×10^6 cells/ml) is transferred into wells of a multi-well plate. From this plate, 80 ul is dispensed into each well of a subsequent plate. The plates are covered with a lid (Nunc) and placed in a 37° C. incubator for 2 hours to rest.
A concentration for each stimulant that is five folds more (5×) than the final concentration is prepared using Media A as diluent. 5× stimuli are arrayed into wells of a standard 96 well v-bottom plate that correspond to the wells on the plate with cells to be stimulated.
Adding the stimulant: The cell plate(s) are taken out of the incubator and placed in a 37° C. water bath next to the pipette apparatus. The cell plate is taken from the water bath and gently swirled to resuspend any settled cells. With pipettor, the stimulant is dispensed into the cell plate and vortexed at “7” for 5 seconds. The deep well plate is put back into the water bath.
The plate is covered with foil sealer and incubated in a 37° C. water bath for 10 minutes. The plate is spun for 6 minutes at 2000 rpm at room temperature. The cells are aspirated using a 96 well plate aspirator (VP Scientific). The plate is vortexed to resuspend cell pellets in the residual volume. The pellet is ensured to be dispersed before the Methanol step (see cell permeabilization) or clumping will occur.
Cell Permeabilization: Permeability agent, for example methanol, is added slowly and while the plate is vortexing. To do this, the cell plate is placed on titer plate shaker and made sure it is secure. The plate is set to shake using the highest setting. A pipetter is used to add 0.6 mls of 100% methanol to the plate wells. The plate(s) are put on ice until this step has been completed for all plates. Plates are covered with a foil seal using the plate roller to achieve a tight fit. At this stage the plates can be stored at −80° C.
Cells are thawed if frozen. Cells are pelleted at 2000 rpm 5 minutes. Supernatant is aspirated with vacuum aspirator. Plate is vortexed on a “plate vortex” for 5-10 seconds. Cells are washed with 1 mL FACS buffer. Repeat the spin, aspirate and vortex steps as above. 50 μL of FACS/stain buffer with the desired, previously optimized, antibody cocktail is added to two rows of cells at a time and agitate the plate. The plate is covered and incubated in a shaker for 30 minutes at room temperature (RT). During this incubation, the compensation plate is prepared.

AML blasts [2] = experiment: SCNP signaling and apoptosis nodes in AML BMMC (Example 4, Study No. 2)
AML blasts [3] = experiment: In vitro drug-induced apoptosis (c-PARP, amine aqua) in primary AML samples (Example 20); conditions: for cells induced to undergo apoptosis: sample COG-06 (MDR+); for cells induced to undergo apoptosis / cells undergoing apoptosis / apoptotic cells: 48 hours, CLO 0.25 μM, AZA 2.5 μM, DEC 0.625 μM; for Apo: 48 hour treatment; for cells undergoing apoptosis: sample COG-07
Method: (§1) Cryopreserved peripheral blood (PBMC) or bone marrow (BMMC) mononuclear cells were obtained from patients with a new diagnosis of AML treated at British Columbia Cancer Agency or Lucile Packard Children's Hospital at Stanford University. All patients provided informed consent for research purposes. Samples were processed (thawed, modulated, fixed, permeabilized, and incubated with antibodies to both surface and intracellular proteins) as previously described (Kornblau, Minden et al., Dynamic single-cell network profiles in acute myelogenous leukemia are associated with patient response to standard induction therapy, 2010, Journal/Clin Cancer Res, 16, 14, 3721-3733; Rosen, Minden et al., Functional characterization of FLT3 receptor signaling deregulation in acute myeloid leukemia by single cell network profiling (SCNP), 2010, Journal/PLoS One, 5, 10, e13543). In this study, cellular DNA damage repair (DDR) and apoptosis were measured simultaneously in AML blasts after exposure to chemotherapeutic agents. Antibodies against phosphorylated (p)-H2AX or p-Chk2 were used to measure the DDR to DSB, while simultaneous measurements of cleaved PARP (c-PARP) and amine aqua viability dye were used to quantify apoptosis and cell death. Chemotherapeutics included Ara-C/Dauno (the two drugs currently used in standard AML induction therapy), Gemtuzumab Ozogamicin (GO), and three other agents currently being evaluated in AML clinical trials [Decitabine (DEC), 5-azacytidine (AZA) and Clofarabine (CLO)]. […] Drug-specific incubation times were chosen to analyze both DDR and apoptosis readouts: Ara-C/Dauno (24 hours), GO, CLO, AZA, DEC (48 hours). […] Similarly, apoptosis responses were not observed for DEC until 48 hours and were higher for AZA at 48 hours (data not shown). PI3Kinase/Akt and Raf/Ras pathway activities were assessed using stem cell factor (SCF) induced p-Akt and p-Erk readouts. Data was acquired on an LSRII flow cytometer and leukemic cells were identified by CD45 versus right-angle light-scatter. Metrics for DDR (Log2Fold) and induced apoptosis have been described previously (Rosen, Putta et al., Distinct patterns of DNA damage response and apoptosis correlate with Jak/Stat and PI3kinase response profiles in human acute myelogenous leukemia, 2010, Journal/PLoS One, 5, 8, e12405).

AML blasts [4] = experiment: DNA damage response (p-H2AX, p-Chk2) to chemotherapeutics in primary AML samples (Example 20); conditions: primary AML samples
Method: as §1

[5] = Fold metric, Study No. 1, CRp patient included in NR group
[6] = Fold metric, all patients, Study No. 2
[7] = Total Phospho metric, Study No. 1, CRp patient included in NR group
[8] = read-out p-Stat3, metric TotalPhospho
[9] = Study No.2, patients less than 60 years old
[10] = Study No.2, patients with De Novo AML

| Molecule | Mean Value of CRs, p-Stat3 (AML blasts [1]; [7]) | Mean Value of NRs, p-Stat3 (AML blasts [1]; [7]) | Mean Value of CRs (AML blasts [1]; [8]) | Mean Value of NRs (AML blasts [1]; [8]) | Mean Value of CRs, p-Stat3 TotalPhospho (AML blasts [2]; [9]) | Mean Value of NRs, p-Stat3 TotalPhospho (AML blasts [2]; [9]) | Mean Value of CRs, p-Stat3 TotalPhospho (AML blasts [2]; [10]) | Mean Value of NRs, p-Stat3 TotalPhospho (AML blasts [2]; [10]) | cells induced to undergo apoptosis (AML blasts [3]) | Apo (AML blasts [3]; sample COG-06) | cells undergoing apoptosis (AML blasts [3]) | apoptotic cells (AML blasts [3]; sample COG-09) | other results |
| --- | --- | --- | --- | --- | --- | --- | --- | --- | --- | --- | --- | --- | --- |
| CCCCCCCCCCCCCC(=O)O[C@@H]1[C@@H](C)[C@@]2(O)[C@@H](C=C(CO)C[C@]3(O)C(=O)C(C)=C[C@@H]23)[C@@H]2C(C)(C)[C@]12OC(C)=O [PMA, reference compound] | – | – | – | – | – | – | – | – | – | – | – | – | Mean Value of NRs, p-Erk (AML blasts [1]; [5]): 2.03; Mean Value of CRs, p-Erk (AML blasts [2]; [6]): 2.82; Mean Value of NRs, p-Erk (AML blasts [2]; [6]): 1.74 |
| GM-CSF | 0.83 | 1.23 | 0.84 | 1.24 | 1.51 | 2.35 | 1.51 | 2.22 | – | – | – | – | – |
| Nc1ncn([C@H]2C[C@H](O)[C@@H](CO)O2)c(=O)n1 [DEC] | – | – | – | – | – | – | – | – | 55.8% | + (For Apo, “+” signifies induced apoptosis >50%.) | 29% | 5% | – |
| Nc1ncn([C@@H]2O[C@H](CO)[C@@H](O)[C@H]2O)c(=O)n1 [AZA, 5-azacytidine] | – | – | – | – | – | – | – | – | 77.5% | + (For Apo, “+” signifies induced apoptosis >50%.) | 32% | 57% | Apo (AML blasts [3]; sample COG-09): + (For Apo, “+” signifies induced apoptosis >50%.); timing of induced DNA damage (pH2AX) relative to apoptosis (AML blasts [4]): coincident with apoptosis |
| IFNg: cytokine modulator of Jak/Stat pathway (protein, UniProt P01579 24-161, looked up) Interferon gamma: QDPYVKEAENLKKYFNAGHSDVADNGTLFLGILKNWKEESDRKIMQSQIVSFYFKLFKNFKDDQSIQKSVETIKEDMNVKFFNSNKKKRDDFEKLTNYSVTDLNVQRKAIHELIQVMAELSPAAKTGKRKRSQMLFRG | 0.68 | 1.3 | 0.74 | 1.30 | 1.60 | 2.71 | 1.59 | 2.48 | – | – | – | – | Mean Value of CRs, p-Stat1 (AML blasts [1]; [5]): 0.45; Mean Value of NRs, p-Stat1 (AML blasts [1]; [5]): 0.91; Mean Value of CRs, p-Stat1 (AML blasts [1]; [7]): 0.67; Mean Value of CRs, p-Stat5 (AML blasts [1]; [7]): 1.62; Mean Value of NRs, p-Stat1 (AML blasts [1]; [7]): 1.27; Mean Value of NRs, p-Stat5 (AML blasts [1]; [7]): 2.35; Mean Value of CRs (AML blasts [1]; read-out p-Stat1, metric Fold): 0.53; Mean Value of NRs (AML blasts [1]; read-out p-Stat1, metric Fold): 0.90; Mean Value of CRs, p-Stag (AML blasts [2]; [6]): −0.02; Mean Value of NRs, p-Stag (AML blasts [2]; [6]): 0.2; Mean Value of CRs, p-Stat1 Fold (AML blasts [2]; [9]): 1.35; Mean Value of CRs, p-Stat1 TotalPhospho (AML blasts [2]; [9]): 2.40; Mean Value of CRs, p-Stat5 Fold (AML blasts [2]; [9]): 0.68; Mean Value of NRs, p-Stat1 Fold (AML blasts [2]; [9]): 2.96; Mean Value of NRs, p-Stat1 TotalPhospho (AML blasts [2]; [9]): 4.13; Mean Value of NRs, p-Stat5 Fold (AML blasts [2]; [9]): 1.67; Mean Value of CRs, p-Stat3 Fold (AML blasts [2]; [10]): −0.04; Mean Value of NRs, p-Stat3 Fold (AML blasts [2]; [10]): 0.24 |
